Laboratory results: US20180355049A1 (CANTARGIA, published 2018)
One block for each binder: values may come before it.

Assays:
[1] = molecular target: T1, human IL1RAP on cells (KU812, LAMA-84, HEK-Blue IL-33/IL-1β cells) (human, UniProt Q9NPH3 21-570); experiment: cell-based or functional assay
T1 sequence (looked up): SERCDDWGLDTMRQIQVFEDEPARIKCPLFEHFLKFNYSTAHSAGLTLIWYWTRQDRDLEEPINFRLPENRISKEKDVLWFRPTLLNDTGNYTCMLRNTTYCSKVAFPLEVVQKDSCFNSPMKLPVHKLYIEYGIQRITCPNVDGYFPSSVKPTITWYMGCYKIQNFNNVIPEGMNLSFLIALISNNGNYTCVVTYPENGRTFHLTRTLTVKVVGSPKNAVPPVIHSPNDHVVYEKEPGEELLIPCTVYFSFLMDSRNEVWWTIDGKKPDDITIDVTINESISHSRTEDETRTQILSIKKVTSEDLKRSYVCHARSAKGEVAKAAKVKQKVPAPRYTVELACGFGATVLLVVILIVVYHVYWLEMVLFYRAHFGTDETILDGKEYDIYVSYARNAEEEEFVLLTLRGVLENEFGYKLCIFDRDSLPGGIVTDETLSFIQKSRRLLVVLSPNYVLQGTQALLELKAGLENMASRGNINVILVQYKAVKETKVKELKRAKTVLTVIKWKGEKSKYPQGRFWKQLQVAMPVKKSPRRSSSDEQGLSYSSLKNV

[2] = molecular target: T1, human IL1RAP on cells (KU812, LAMA-84, …); experiment: cell-based or functional assay; remark: listed apart in the source
[3] = molecular target: T2, IL1RAP protein (analyte of the Biacore study, Example A(i)) (human, UniProt Q9NPH3 21-367, limits assumed); experiment: SPR, BIAcore T200, antibody captured by anti-mouse IgG, analyte 100 nM, 25 C
T2 construct: also called the analyte; human IL1RAP
T2 sequence (looked up): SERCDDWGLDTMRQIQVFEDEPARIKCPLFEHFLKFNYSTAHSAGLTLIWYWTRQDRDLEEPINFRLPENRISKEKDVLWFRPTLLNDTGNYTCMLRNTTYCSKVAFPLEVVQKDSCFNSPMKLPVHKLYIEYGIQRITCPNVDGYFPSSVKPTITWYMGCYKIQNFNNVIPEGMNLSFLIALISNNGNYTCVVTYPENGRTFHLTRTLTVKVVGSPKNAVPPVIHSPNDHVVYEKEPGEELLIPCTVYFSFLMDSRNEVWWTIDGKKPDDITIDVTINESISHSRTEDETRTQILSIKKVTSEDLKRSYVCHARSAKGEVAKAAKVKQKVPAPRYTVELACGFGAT
Description: Goat anti-mouse IgG was immobilized on a CM5 chip according to the technical manual of capture kit and standard operation principle of BIAcore T200 (Biacore Life Sciences, GE Healthcare Europe GmbH, Uppsala, Sweden).
The capture molecule surface was regenerated after each binding cycle using the manufacturer's recommended conditions.
After five cycles of start-up, each antibody (100 nM) was injected at a flow rate of 30 μl/min, for 120 s, at the start of the cycle; then the analyte (100 nM) was injected at a flow rate of 30 μl/min, for 120 s, followed by monitoring the dissociation phase for 300 s.

EC50, human IL-1α-stimulated HEK-Blue IL-33/IL-1β cells [1]: 37.6 nM
EC50, human IL-1β-stimulated HEK-Blue IL-33/IL-1β cells [1]: 10.5 nM
EC50, human IL-33-stimulated HEK-Blue IL-33/IL-1β cells [1]: 30.5 nM
IC50, human IL-1α-stimulated HEK-Blue IL-33/IL-1β cells [1]: 37.3 nM
IC50, human IL-1β-stimulated HEK-Blue IL-33/IL-1β cells [1]: 10.1 nM
IC50, human IL-33-stimulated HEK-Blue IL-33/IL-1β cells [1]: 30.4 nM
EC50, murine IL-1 alpha-stimulated HEK-Blue IL-33/IL-1β cells [2]: 2.9 nM
EC50, murine IL-1 beta-stimulated HEK-Blue IL-33/IL-1β cells [2]: 1.56 nM
EC50, murine IL-33-stimulated HEK-Blue IL-33/IL-1β cells [2]: 4.01 nM
IC50, murine IL-1 alpha-stimulated HEK-Blue IL-33/IL-1β cells [2]: 5 nM
IC50, murine IL-1 beta-stimulated HEK-Blue IL-33/IL-1β cells [2]: 1.59 nM
IC50, murine IL-33-stimulated HEK-Blue IL-33/IL-1β cells [2]: 4.12 nM
Kd [3]: 0.321 nM
koff [3]: 7.25e-05 s⁻¹
kon [3]: 226000 M⁻¹ s⁻¹
B1: CAN03 (antibody, V domains shown)
VH: DVKLVESGGGLVKPGGSLKLSCAASGFTFSIYTMSWVRQTPEKRLEWVATISIGGSYINYPDSVKGRFTISRDNAKNTLYLQMSSLKSEDTAIYYCSREVDGSYAMDYWGQGTSVTVSS
VL: DILLTQSPAILSVSPGERVSFSCRASQSIGTSIHWYQRRTNGSPRLLIKSASESISGIPSRFSGSGSGTDFTLSINSVESEDIADYYCQQSNSWPTTFGAGTKLELKR
notes: Murine-derived monoclonal anti-IL1RAP antibody; also called CAN03-AF488 (AlexaFluor488-labelled form)

EC50, murine IL-1 alpha-stimulated HEK-Blue IL-33/IL-1β cells [2]: 84.2 nM
EC50, murine IL-1 beta-stimulated HEK-Blue IL-33/IL-1β cells [2]: > 100 nM
EC50, murine IL-33-stimulated HEK-Blue IL-33/IL-1β cells [2]: > 100 nM
IC50, murine IL-1 alpha-stimulated HEK-Blue IL-33/IL-1β cells [2]: 81.7 nM
IC50, murine IL-1 beta-stimulated HEK-Blue IL-33/IL-1β cells [2]: 50 nM
IC50, murine IL-33-stimulated HEK-Blue IL-33/IL-1β cells [2]: > 100 nM
Kd [3]: 1.43 nM
koff [3]: 0.000335 s⁻¹
kon [3]: 234000 M⁻¹ s⁻¹
B2: CAN01 (antibody, V domains shown)
VH: QVQLQQSGTELMKPGASVKISCKATGYTVSSYWIDWVKQTPGHGLEWIGEILPGSAINNYNEKFKGKATFTADTSSNTAYMQLSSLTSEDSAVYYCASGDYFDSTFVYYWGQGTTLTVSS
VL: DVLMTQTPLSLPVSLGDQASISCRSSQSIVHSNGNTYLEWYLQKPGQSPKLLIYKVSNRFSGVPDRFSGSGSGTDFTLKISRVEAEDLGVYYCFQGSHVPRTFGGGTKLEIKR
notes: Murine-derived monoclonal anti-IL1RAP antibody; also called CAN01-AF488 (AlexaFluor488-labelled form)
